In the supplement of paper PMC10126150:
± gives the standard deviation of the averaged measurements.

Tested on: ATP
Assay: switch fluorescence ratio, 500 uM ATP over buffer (Cy3 cluster intensity, sum of 5 cycles each) (fold (ratio)); higher = stronger signal-on switching upon ATP binding; sequences stand for … in TCGTCGGCAGCGTCAGATGTGTATAAGAGACAGTTTTTTTTTTTTTTTTTTTTTTTTT…TC
Conditions: aptamer strand: ATP DNA aptamer (quencher-CACCTGGGGGAGTATTGCGGAGGAAGG + anchor), 100 nM annealed; ATP concentration: 500 uM
How it was run: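 Clusters with intensities outside 100-1000 RFU were excluded. The remaining Cy3-labelled switching-strand clusters on a modified Illumina MiSeq flow-cell had been annealed to 100 nM quencher-labelled ATP aptamer and imaged in selection buffer, then after 15 min with 500 uM ATP at 22 °C, for five cycles separated by NaOH stripping and re-annealing. The fluorescence ratio, averaged per switch-domain sequence, is each cluster's summed target-cycle Cy3 intensity over its summed buffer-cycle Cy3 intensity.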
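Further: ATP exposure 15 min at 22 °C before imaging.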

With CGGGGTTACC the switch fluorescence ratio was 0.9924 ± 0.0059.

For CGGGGTTCGC, the switch fluorescence ratio was 1.95 ± 1.3.

In the case of CGGGGTTGTT, the switch fluorescence ratio is reported as 0.9882 ± 0.0067.

In the case of CGGGTAAGCC, the switch fluorescence ratio is reported as 0.961 ± 0.027.

CGGGTAAGGG gave a switch fluorescence ratio of 1.01 ± 0.04.

In the case of CGGGTAAGTT, the switch fluorescence ratio is reported as 1.09 ± 0.2.

CGGGTAATAG gave a switch fluorescence ratio of 1.46 ± 0.16.

In the case of CGGGTACCAG, the switch fluorescence ratio is reported as 1.01 ± 0.043.

CGGGTACGTG was tested, and the switch fluorescence ratio was 1.02 ± 0.018.

CGGGTAGCG showed a switch fluorescence ratio of 0.969 ± 0.013.

In the case of CGGGTAGGGA, the switch fluorescence ratio is reported as 1.01 ± 0.022.

With CGGGTATGGC the switch fluorescence ratio was 1.02 ± 0.063.

Work on CGGGTATTTG yielded a switch fluorescence ratio of 1.04 ± 0.028.

In the case of CGGGTCCTAA, the switch fluorescence ratio is reported as 0.9795 ± 0.0078.

CGGGTCGAAA showed a switch fluorescence ratio of 0.982 ± 0.049.

CGGGTCTGCT showed a switch fluorescence ratio of 0.985 ± 0.022.

Work on CGGGTGCAAA yielded a switch fluorescence ratio of 1.08 ± 0.016.

CGGGTGCGGT was tested, and the switch fluorescence ratio was 0.951 ± 0.045.

CGGGTGGGG was tested, and the switch fluorescence ratio was 1.03 ± 0.071.

CGGGTGGTGG gave a switch fluorescence ratio of 0.99 ± 0.017.

CGGGTGTGAC gave a switch fluorescence ratio of 1.02 ± 0.023.

CGGGTGTGGG was tested, and the switch fluorescence ratio was 1.009 ± 0.0012.

CGGGTTACGG showed a switch fluorescence ratio of 0.9728 ± 0.0055.

In the case of CGGGTTAGAG, the switch fluorescence ratio is reported as 0.968 ± 0.019.

With CGGGTTGGTT the switch fluorescence ratio was 1.032 ± 0.0056.

Sequence CGGGTTGTAG has a switch fluorescence ratio of 1 ± 0.036.

For CGGGTTGTCA, the switch fluorescence ratio was 0.9969 ± 0.0072.

CGGGTTGTCG showed a switch fluorescence ratio of 1.02 ± 0.05.

CGGGTTTACG gave a switch fluorescence ratio of 1 ± 0.025.

CGGTAAACAC gave a switch fluorescence ratio of 1.06 ± 0.047.

Sequence CGGTAACCTT has a switch fluorescence ratio of 1.31 ± 0.44.

CGGTAACTAT was tested, and the switch fluorescence ratio was 1.02 ± 0.017.

CGGTAAGGGC showed a switch fluorescence ratio of 0.966 ± 0.038.

Work on CGGTAATTGG yielded a switch fluorescence ratio of 1.01 ± 0.02.

With CGGTACGGGG the switch fluorescence ratio was 0.979 ± 0.018.

In the case of CGGTACTATA, the switch fluorescence ratio is reported as 1.055 ± 0.0086.

With CGGTAGAGTA the switch fluorescence ratio was 0.98 ± 0.062.

Sequence CGGTAGATGT has a switch fluorescence ratio of 1 ± 0.034.

CGGTAGCTCT was tested, and the switch fluorescence ratio was 0.989 ± 0.037.

CGGTAGGAAC gave a switch fluorescence ratio of 1.01 ± 0.028.

In the case of CGGTAGGCTT, the switch fluorescence ratio is reported as 0.996 ± 0.037.

For CGGTAGTGAG, the switch fluorescence ratio was 1.04 ± 0.014.

For CGGTAGTTGG, the switch fluorescence ratio was 0.983 ± 0.019.

Work on CGGTATAACT yielded a switch fluorescence ratio of 1 ± 0.011.

In the case of CGGTATAGTA, the switch fluorescence ratio is reported as 0.983 ± 0.032.

With CGGTATCTAT the switch fluorescence ratio was 0.96436 ± 0.00057.

Work on CGGTATGTAT yielded a switch fluorescence ratio of 1.02 ± 0.042.

CGGTCGGGGT was tested, and the switch fluorescence ratio was 0.995 ± 0.045.

For CGGTCGGGTA, the switch fluorescence ratio was 1.01 ± 0.031.

CGGTCGGGTC gave a switch fluorescence ratio of 1.01 ± 0.028.

CGGTCGTAAC gave a switch fluorescence ratio of 1.04 ± 0.018.

Sequence CGGTCTGGTC has a switch fluorescence ratio of 0.987 ± 0.018.

For CGGTCTGTTA, the switch fluorescence ratio was 1.04 ± 0.11.

Work on CGGTCTTGGG yielded a switch fluorescence ratio of 0.9536 ± 0.0085.

In the case of CGGTGAAGAA, the switch fluorescence ratio is reported as 0.989 ± 0.013.

For CGGTGAATCT, the switch fluorescence ratio was 1.01 ± 0.03.

Sequence CGGTGACGGG has a switch fluorescence ratio of 0.959 ± 0.014.

For CGGTGACTTG, the switch fluorescence ratio was 1.01 ± 0.017.

In the case of CGGTGATCGT, the switch fluorescence ratio is reported as 1.02 ± 0.015.

Work on CGGTGATGGG yielded a switch fluorescence ratio of 1.01 ± 0.031.

With CGGTGATTTT the switch fluorescence ratio was 1.02 ± 0.03.

With CGGTGCATGA the switch fluorescence ratio was 1.027 ± 0.0092.

For CGGTGCGCTG, the switch fluorescence ratio was 0.9964 ± 0.0016.

For CGGTGCGGGA, the switch fluorescence ratio was 1.01 ± 0.011.

Work on CGGTGGACGA yielded a switch fluorescence ratio of 0.9977 ± 0.005.

CGGTGGACTG gave a switch fluorescence ratio of 1.07 ± 0.014.

With CGGTGGCAGC the switch fluorescence ratio was 0.983 ± 0.038.

CGGTGGGCGC gave a switch fluorescence ratio of 0.974 ± 0.091.

CGGTGGTGGC showed a switch fluorescence ratio of 1.13 ± 0.015.

For CGGTGTACTG, the switch fluorescence ratio was 0.992 ± 0.013.

Sequence CGGTGTAGGG has a switch fluorescence ratio of 0.99 ± 0.03.

With CGGTGTAGTC the switch fluorescence ratio was 1.012 ± 0.01.

For CGGTGTGACA, the switch fluorescence ratio was 0.993 ± 0.051.

CGGTGTGGGA showed a switch fluorescence ratio of 0.996 ± 0.044.

With CGGTGTGGGT the switch fluorescence ratio was 1.03 ± 0.0023.

CGGTGTTGGA showed a switch fluorescence ratio of 0.978 ± 0.039.

CGGTTAAACG showed a switch fluorescence ratio of 0.975 ± 0.019.

Sequence CGGTTAAGAT has a switch fluorescence ratio of 0.993 ± 0.012.

Sequence CGGTTACATT has a switch fluorescence ratio of 1 ± 0.014.

CGGTTACCAG gave a switch fluorescence ratio of 1.03 ± 0.013.

For CGGTTAGATG, the switch fluorescence ratio was 1 ± 0.047.

With CGGTTAGGGG the switch fluorescence ratio was 0.9829 ± 0.0021.

For CGGTTAGTTT, the switch fluorescence ratio was 0.97 ± 0.034.

For CGGTTATAAG, the switch fluorescence ratio was 0.9679 ± 0.00054.

In the case of CGGTTATCTA, the switch fluorescence ratio is reported as 1.01 ± 0.054.

Sequence CGGTTATTGG has a switch fluorescence ratio of 0.958 ± 0.041.

CGGTTCAGTT showed a switch fluorescence ratio of 1.036 ± 0.0022.

CGGTTCCTAA gave a switch fluorescence ratio of 0.994 ± 0.016.

CGGTTGATGG showed a switch fluorescence ratio of 0.969 ± 0.074.

CGGTTGGCGA showed a switch fluorescence ratio of 1.02 ± 0.011.

With CGGTTGTGAC the switch fluorescence ratio was 0.994 ± 0.027.

With CGGTTGTTGG the switch fluorescence ratio was 0.9787 ± 0.0058.

Work on CGGTTTATAA yielded a switch fluorescence ratio of 0.981 ± 0.013.

With CGGTTTCAGT the switch fluorescence ratio was 0.996 ± 0.023.

CGGTTTCGTG gave a switch fluorescence ratio of 0.995 ± 0.018.

With CGGTTTTATC the switch fluorescence ratio was 1.01 ± 0.034.

CGGTTTTCAT showed a switch fluorescence ratio of 0.984 ± 0.019.

CGGTTTTTT gave a switch fluorescence ratio of 1 ± 0.021.

Sequence CGTAAAAAT has a switch fluorescence ratio of 1.01 ± 0.027.

CGTAAAAATG showed a switch fluorescence ratio of 1.01 ± 0.024.
